Data from publication doi:10.1101/2021.08.25.457658.
Where two headings read alike, the source gives them in different places.

Assays:
[1] = biological target: T1, GST-p50 (NF-kB p50 subunit) (UniProt P19838-2 1-433, del434-969); experiment: EMSA
[2] = biological target: T1, GST-p50 (NF-kB p50 subunit); experiment: EMSA; remark: listed apart in the source

Binder | binding result [1] | binding result [2]
Spic promoter NF-kB site WT (dsDNA) DNA 1: GCTGCAAAGGGGATTTTTTTT DNA 2: AAAAAAAATCCCCTTTGCAGC | binds | 
Spic promoter NF-kB site mutant (dsDNA) DNA 1: GCTGCAAAGCCGATTTTTTTT DNA 2: AAAAAAAATCGGCTTTGCAGC |  | no binding
